Values of other authors in article PMC6753016.
pKd, pKi: −log10 of the molar value. Like-named read-outs stand apart in the source and are kept apart here.

What was measured:
[1] = target: Trypsin (Bos taurus) (UniProt P00760)
[2] = target: Cathepsin H (UniProt P09668)
[3] = target: Cathepsin H (UniProt P09668); remark: listed apart in the source
[4] = target: Factor XIIa (Homo sapiens) (UniProt P00748)
[5] = target: Trypsin (Bos taurus) (UniProt P00760); remark: listed apart in the source
[6] = target: Plasmin (Homo sapiens) (UniProt P00747)
Sequence of Plasmin (Homo sapiens) (P00747 581-810): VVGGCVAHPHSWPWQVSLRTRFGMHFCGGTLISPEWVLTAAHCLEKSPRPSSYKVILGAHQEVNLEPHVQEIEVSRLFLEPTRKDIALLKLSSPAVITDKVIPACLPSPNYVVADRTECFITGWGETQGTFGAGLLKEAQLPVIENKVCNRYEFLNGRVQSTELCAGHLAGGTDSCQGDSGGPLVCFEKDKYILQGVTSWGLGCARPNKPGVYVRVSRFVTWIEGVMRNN

[7] = target: Chymotrypsin (Bos taurus) (UniProt P00766)
[8] = target: Cathepsin G (Homo sapiens) (UniProt P08311)
Sequence of Cathepsin G (Homo sapiens) (P08311 21-243): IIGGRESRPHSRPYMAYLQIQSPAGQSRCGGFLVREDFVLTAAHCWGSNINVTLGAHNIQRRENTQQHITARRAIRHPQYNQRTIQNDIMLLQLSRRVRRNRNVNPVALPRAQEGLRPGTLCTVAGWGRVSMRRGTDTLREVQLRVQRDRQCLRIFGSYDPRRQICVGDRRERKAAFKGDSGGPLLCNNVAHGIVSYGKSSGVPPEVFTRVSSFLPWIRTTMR

[9] = target: Trypsin (Bos taurus) (UniProt P00760); remark: listed apart in the source
[10] = target: Leukocyte elastase (UniProt P08246)
Sequence of Leukocyte elastase (P08246 30-267): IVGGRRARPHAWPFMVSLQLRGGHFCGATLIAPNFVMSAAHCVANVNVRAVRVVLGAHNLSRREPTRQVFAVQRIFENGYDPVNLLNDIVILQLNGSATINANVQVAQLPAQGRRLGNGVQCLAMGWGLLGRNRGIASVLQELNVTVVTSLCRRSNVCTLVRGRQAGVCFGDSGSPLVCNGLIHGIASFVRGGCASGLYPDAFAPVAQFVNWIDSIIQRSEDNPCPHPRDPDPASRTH

[11] = target: Chymotrypsin (Bos taurus) (UniProt P00766); remark: listed apart in the source
[12] = target: Mast cell chymase (Homo sapiens) (UniProt P23946)
Sequence of Mast cell chymase (Homo sapiens) (P23946 22-247): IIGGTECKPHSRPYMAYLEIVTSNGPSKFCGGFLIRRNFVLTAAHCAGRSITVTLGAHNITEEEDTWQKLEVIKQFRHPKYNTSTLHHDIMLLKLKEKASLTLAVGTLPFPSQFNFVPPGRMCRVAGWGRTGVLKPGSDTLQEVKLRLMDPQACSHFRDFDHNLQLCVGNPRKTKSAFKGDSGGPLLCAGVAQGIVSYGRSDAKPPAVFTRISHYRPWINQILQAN

[13] = target: Duadenase (Bos taurus) (UniProt P80219)
[14] = target: Cathepsin G (Homo sapiens) (UniProt P08311); remark: listed apart in the source
[15] = target: Carboxypeptidase A (Bos taurus) (UniProt P00730)
[16] = target: Carboxypeptidase B (Sus scrofa) (UniProt P09955)
Sequence of Carboxypeptidase B (Sus scrofa) (P09955 111-416): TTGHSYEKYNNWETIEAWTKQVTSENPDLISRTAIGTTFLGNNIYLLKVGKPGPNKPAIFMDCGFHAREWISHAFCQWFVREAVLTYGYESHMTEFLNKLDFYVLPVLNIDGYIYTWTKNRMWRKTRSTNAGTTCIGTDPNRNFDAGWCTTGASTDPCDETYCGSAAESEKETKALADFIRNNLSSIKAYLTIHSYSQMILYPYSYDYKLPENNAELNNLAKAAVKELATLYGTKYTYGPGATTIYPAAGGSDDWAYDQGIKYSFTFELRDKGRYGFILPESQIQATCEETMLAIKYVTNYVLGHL

[17] = target: Factor XIIa (Homo sapiens) (UniProt P00748); remark: listed apart in the source
[18] = target: Plasma kallikrein (Homo sapiens) (UniProt P03952)
Sequence of Plasma kallikrein (Homo sapiens) (P03952 391-638): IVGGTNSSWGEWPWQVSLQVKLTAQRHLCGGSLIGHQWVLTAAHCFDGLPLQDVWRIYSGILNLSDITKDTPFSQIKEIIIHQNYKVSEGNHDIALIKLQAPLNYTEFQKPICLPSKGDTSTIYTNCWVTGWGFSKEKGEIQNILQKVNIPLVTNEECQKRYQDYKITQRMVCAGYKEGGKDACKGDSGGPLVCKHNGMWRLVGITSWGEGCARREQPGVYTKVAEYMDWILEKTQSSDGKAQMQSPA

[19] = target: Trypsin (Bos taurus) (UniProt P00760); remark: listed apart in the source
[20] = target: Factor Xa (Homo sapiens) (UniProt P00742)
Sequence of Factor Xa (Homo sapiens) (P00742 235-488): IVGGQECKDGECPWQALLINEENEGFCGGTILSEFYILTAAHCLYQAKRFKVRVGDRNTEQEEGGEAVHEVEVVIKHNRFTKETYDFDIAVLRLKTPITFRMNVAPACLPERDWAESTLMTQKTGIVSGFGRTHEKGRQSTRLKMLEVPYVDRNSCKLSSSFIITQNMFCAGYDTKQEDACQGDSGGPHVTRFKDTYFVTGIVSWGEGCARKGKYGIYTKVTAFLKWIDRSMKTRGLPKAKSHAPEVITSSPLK

[21] = target: Factor XIIa (Homo sapiens) (UniProt P00748); remark: listed apart in the source
[22] = target: Neutrophil elastase (Homo sapiens) (UniProt P08246)
[23] = target: Plasma kallikrein (Homo sapiens) (UniProt P03952); remark: listed apart in the source
[24] = target: Plasmin (Homo sapiens) (UniProt P00747); remark: listed apart in the source
[25] = target: Cathepsin B (UniProt P07858)
[26] = target: Cathepsin L (UniProt P07711)
Target sequence in this assay (P07711 114-288, chain 1 of 2): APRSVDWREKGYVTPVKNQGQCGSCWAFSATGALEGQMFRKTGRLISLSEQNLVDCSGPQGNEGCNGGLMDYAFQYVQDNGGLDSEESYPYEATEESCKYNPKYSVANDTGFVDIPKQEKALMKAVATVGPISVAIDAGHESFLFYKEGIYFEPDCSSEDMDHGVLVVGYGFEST
Target sequence in this assay (P07711 292-333, chain 2 of 2): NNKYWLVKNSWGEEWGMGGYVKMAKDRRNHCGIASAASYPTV

[27] = target: Dipeptidyl peptidase I (UniProt P53634)
[28] = target: Clostripain (Hathewaya histolytica) (UniProt P09870)
[29] = target: Cathepsin L (UniProt P07711); remark: listed apart in the source
Target sequence in this assay (P07711 292-333): as the sequence (P07711 292-333, chain 2 of 2) above

[30] = target: Clostripain (UniProt P09870)
[31] = target: Cathepsin B (UniProt P07858); remark: listed apart in the source
[32] = target: Cathepsin L (UniProt P07711); remark: listed apart in the source
Target sequence in this assay (P07711 114-288, chain 1 of 2): as the sequence (P07711 114-288, chain 1 of 2) above
Target sequence in this assay (P07711 292-333, chain 2 of 2): as the sequence (P07711 292-333, chain 2 of 2) above

[33] = target: Leukocyte elastase (UniProt P08246); remark: listed apart in the source
[34] = target: Pancreatic elastase (Sus scrofa) (UniProt P00772)
[35] = target: Cathepsin L (UniProt P07711); remark: listed apart in the source
Target sequence in this assay (P07711 292-333): as the sequence (P07711 292-333, chain 2 of 2) above

[36] = target: Factor XIIa (Homo sapiens) (UniProt P00748); remark: listed apart in the source
[37] = target: Trypsin (Bos taurus) (UniProt P00760); remark: listed apart in the source
[38] = target: Factor XIIa (Homo sapiens) (UniProt P00748); remark: listed apart in the source
[39] = target: Trypsin (Bos taurus) (UniProt P00760); remark: listed apart in the source
[40] = target: Plasmin (Homo sapiens) (UniProt P00747); remark: listed apart in the source
[41] = target: Kallikrein 4 (Homo sapiens) (UniProt Q9Y5K2)
Sequence of Kallikrein 4 (Homo sapiens) (Q9Y5K2 31-254): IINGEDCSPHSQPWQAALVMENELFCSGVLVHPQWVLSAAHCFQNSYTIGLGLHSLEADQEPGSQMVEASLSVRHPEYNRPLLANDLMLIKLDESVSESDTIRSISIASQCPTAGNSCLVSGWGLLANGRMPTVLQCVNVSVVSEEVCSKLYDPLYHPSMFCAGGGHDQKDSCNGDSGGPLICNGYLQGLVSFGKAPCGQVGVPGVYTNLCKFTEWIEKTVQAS

[42] = target: Matriptase (Homo sapiens) (UniProt Q9Y5Y6)
[43] = target: β-tryptase (Homo sapiens) (UniProt Q15661)
[44] = target: Trypsin (Bos taurus) (UniProt P00760); remark: listed apart in the source
[45] = target: Factor XIIa (Homo sapiens) (UniProt P00748); remark: listed apart in the source
[46] = target: Factor Xa (Homo sapiens) (UniProt P00742); remark: listed apart in the source
[47] = target: Kallikrein (Homo sapiens) (UniProt P03952)
[48] = target: Factor XIIa (Homo sapiens) (UniProt P00748); remark: listed apart in the source
[49] = target: Plasma kallikrein (Homo sapiens) (UniProt P03952); remark: listed apart in the source
[50] = target: Plasmin (Homo sapiens) (UniProt P00747); remark: listed apart in the source
[51] = target: Chymotrypsin (Bos taurus) (UniProt P00766); remark: listed apart in the source
[52] = target: Hageman factor (Homo sapiens) (UniProt P00748)
[53] = target: β-Trypsin (Bos taurus) (UniProt P00760)
Sequence of β-Trypsin (Bos taurus) (P00760 149-246): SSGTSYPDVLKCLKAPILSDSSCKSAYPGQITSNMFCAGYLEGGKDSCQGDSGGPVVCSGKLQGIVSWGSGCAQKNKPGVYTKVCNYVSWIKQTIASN

[54] = target: Trypsin (Bos taurus) (UniProt P00760); remark: listed apart in the source
[55] = target: Chymotrypsin (Bos taurus) (UniProt P00766); remark: listed apart in the source

Sequence of MCoTI-II (P82409 whole entry): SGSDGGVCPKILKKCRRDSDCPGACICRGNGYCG
Sequence of Trypsin (Bos taurus) (P00760 149-246): as the sequence (P00760 149-246) above
Sequence of SKTI-31 (P01070 25-205): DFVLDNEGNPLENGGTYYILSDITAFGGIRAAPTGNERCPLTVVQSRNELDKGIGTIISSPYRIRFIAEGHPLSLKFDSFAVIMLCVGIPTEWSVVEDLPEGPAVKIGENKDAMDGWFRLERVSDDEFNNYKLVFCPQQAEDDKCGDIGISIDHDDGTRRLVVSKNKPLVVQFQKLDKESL
Sequence of EcTI (P86451 1-134): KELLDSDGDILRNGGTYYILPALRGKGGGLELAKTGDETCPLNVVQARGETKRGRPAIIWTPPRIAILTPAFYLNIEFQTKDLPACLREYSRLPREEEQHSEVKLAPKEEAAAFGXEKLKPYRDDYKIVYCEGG
Sequence of EcTI (P86451 135-174): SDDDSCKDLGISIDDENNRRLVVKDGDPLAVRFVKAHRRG
Sequence of LCTI-II (P25850 whole entry): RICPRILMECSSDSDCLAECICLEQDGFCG
Sequence of Cruzipain inhibitor (BbCI) (P83051 whole entry): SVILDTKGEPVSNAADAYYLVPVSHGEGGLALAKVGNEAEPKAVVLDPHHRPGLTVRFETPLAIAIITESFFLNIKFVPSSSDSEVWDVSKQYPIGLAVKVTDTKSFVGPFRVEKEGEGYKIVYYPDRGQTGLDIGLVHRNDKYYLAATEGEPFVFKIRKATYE
Sequence of LLDTI-II (P26771 2-30): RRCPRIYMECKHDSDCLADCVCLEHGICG
Sequence of Factor XIIa (Homo sapiens) (P00748 whole entry, looked up): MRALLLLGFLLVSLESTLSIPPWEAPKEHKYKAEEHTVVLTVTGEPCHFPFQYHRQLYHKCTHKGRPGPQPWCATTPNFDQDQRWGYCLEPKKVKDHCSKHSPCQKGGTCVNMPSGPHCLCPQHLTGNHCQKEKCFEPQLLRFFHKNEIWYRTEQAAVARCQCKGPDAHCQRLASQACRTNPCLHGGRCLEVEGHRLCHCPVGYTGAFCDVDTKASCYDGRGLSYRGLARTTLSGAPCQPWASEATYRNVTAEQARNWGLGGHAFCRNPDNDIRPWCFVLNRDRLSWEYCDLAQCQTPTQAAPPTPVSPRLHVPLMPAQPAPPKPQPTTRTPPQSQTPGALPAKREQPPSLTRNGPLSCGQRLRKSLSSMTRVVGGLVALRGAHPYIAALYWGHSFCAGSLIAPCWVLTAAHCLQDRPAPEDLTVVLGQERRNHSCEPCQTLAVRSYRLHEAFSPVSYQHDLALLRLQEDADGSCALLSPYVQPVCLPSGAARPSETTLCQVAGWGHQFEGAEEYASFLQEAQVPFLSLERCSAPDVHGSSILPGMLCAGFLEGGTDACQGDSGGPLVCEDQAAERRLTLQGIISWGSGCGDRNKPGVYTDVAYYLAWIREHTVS
Sequence of ATSI (P80211 whole entry): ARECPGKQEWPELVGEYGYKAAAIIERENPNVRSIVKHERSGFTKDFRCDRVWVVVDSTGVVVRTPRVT
Sequence of Soybean BBI (P01055 40-110): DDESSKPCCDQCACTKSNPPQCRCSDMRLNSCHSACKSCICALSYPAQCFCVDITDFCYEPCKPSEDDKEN
Sequence of CMTI-V (P19873 whole entry): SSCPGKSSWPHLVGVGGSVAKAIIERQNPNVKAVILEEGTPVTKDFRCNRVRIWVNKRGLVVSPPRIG
Sequence of CMTI-I (P01074 whole entry): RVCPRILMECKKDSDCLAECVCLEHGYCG
Sequence of Enterolobium EcTI (P86451 1-134): as the sequence (P86451 1-134) above
Sequence of Enterolobium EcTI (P86451 135-174): as the sequence (P86451 135-174) above
Sequence of Potato CPI (P01075 whole entry): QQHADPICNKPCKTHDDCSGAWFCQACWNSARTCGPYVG
Sequence of Oryzacystatin-II (P20907 whole entry): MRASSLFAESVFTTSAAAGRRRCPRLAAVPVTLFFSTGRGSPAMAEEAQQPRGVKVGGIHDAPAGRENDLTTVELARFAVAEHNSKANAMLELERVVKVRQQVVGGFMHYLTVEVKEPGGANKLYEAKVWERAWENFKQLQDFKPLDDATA
Sequence of VhTI (P85981 whole entry): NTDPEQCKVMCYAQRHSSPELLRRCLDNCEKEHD

Q: With RATI (from UniProt P01087) as the substance, how does the pKi [1] read?
A: The pKi was 8.92.

Q: Which results are given for Oryzacystatin-II (from UniProt P20907)?
A: pKi [2]: 7.60; pKi [3]: 7.60

Q: What does the source list for ATSI (from UniProt P80211)?
A: pKi [4]: 6.36; pKi [5]: 9.47; pKi [6]: 7.42; pKi [7]: 9.39; pKi [8]: 6.92

Q: With Soybean BBI (from UniProt P01055) as the substance, how does the pKi [9] read?
A: The pKi was 8.40.

Q: And the pKi [10]?
A: The pKi was 8.64.

Q: What about the pKi [11] of the same substance?
A: Its pKi is 7.54.

Q: And the pKi [12]?
A: Its pKi is 9.30.

Q: What about the pKi [13] of the same substance?
A: Its pKi is 9.40.

Q: What about the pKi [14] of the same substance?
A: Its pKi is 5.19.

Q: With Potato CPI (from UniProt P01075) as the substance, how does the pKi [15] read?
A: The pKi was 8.70.

Q: And the pKi [16]?
A: Its pKi is 8.40.

Q: With LLDTI-II (from UniProt P26771) as the substance, how does the pKi [17] read?
A: Its pKi is 5.85.

Q: And the pKi [18]?
A: Its pKi is 4.57.

Q: And the pKi [19]?
A: The pKi was 10.02.

Q: And the pKi [20]?
A: Its pKi is 4.39.

Q: With EcTI (from UniProt P86451) as the substance, how does the pKi [21] read?
A: The pKi was 7.09.

Q: What about the pKi [22] of the same substance?
A: The pKi was 7.26.

Q: And the pKi [23]?
A: Its pKi is 8.21.

Q: What about the pKi [24] of the same substance?
A: Its pKi is 8.03.

Q: What does the source list for PCPI 8.3 (from UniProt P20347)?
A: pKi [25]: 6.49; pKi [26]: 10.15; pKi [27]: < 6.30; pKi [28]: < 6.30; pKi [29]: 10.15; pKi [30]: < 6.30; pKi [31]: 6.49

Q: With “Cruzipain inhibitor (BbCI) (from UniProt P83051)” as the substance, how does the pKi [32] read?
A: The pKi was 8.66.

Q: And the pKi [33]?
A: The pKi was 8.28.

Q: What about the pKi [34] of the same substance?
A: Its pKi is 8.40.

Q: What about the pKi [35] of the same substance?
A: The pKi was 8.66.

Q: With CMTI-V (from UniProt P19873) as the substance, how does the pKi [36] read?
A: The pKi was 7.39.

Q: What about the pKi [37] of the same substance?
A: Its pKi is 7.80.

Q: With MCoTI-II (from UniProt P82409) as the substance, how does the pKi [38] read?
A: Its pKi is 6.12.

Q: What about the pKi [39] of the same substance?
A: Its pKi is 11.64.

Q: And the pKi [40]?
A: The pKi was 7.55.

Q: What about the pKi [41] of the same substance?
A: Its pKi is 8.80.

Q: And the pKi [42]?
A: Its pKi is 8.05.

Q: What about the pKi [43] of the same substance?
A: Its pKi is 6.22.

Q: With VhTI (from UniProt P85981) as the substance, how does the pKi [44] read?
A: Its pKi is > 9.00.

Q: With LCTI-II (from UniProt P25850) as the substance, how does the pKi [45] read?
A: Its pKi is 7.12.

Q: What about the pKi [46] of the same substance?
A: Its pKi is 3.11.

Q: What about the pKi [47] of the same substance?
A: The pKi was 10.02.

Q: With SKTI-31 (from UniProt P01070) as the substance, how does the pKi [48] read?
A: Its pKi is 5.85.

Q: And the pKi [49]?
A: The pKi was 8.24.

Q: What about the pKi [50] of the same substance?
A: Its pKi is 6.72.

Q: What about the pKi [51] of the same substance?
A: Its pKi is 7.15.

Q: With CMTI-I (from UniProt P01074) as the substance, how does the pKd [52] read?
A: The pKd was 7.39.

Q: What about the pKd [53] of the same substance?
A: Its pKd is 7.89.

Q: With Enterolobium EcTI (from UniProt P86451) as the substance, how does the pKi [54] read?
A: Its pKi is 9.10.

Q: What about the pKi [55] of the same substance?
A: Its pKi is 8.96.
